Source: patent US8435522 (Teva, dated 2013)
One block for each binder: values may come before it.

Columns and labels:
[1] = biological target: T1, CXCR3 (human cell surface protein CD183) (human, UniProt P49682 1-368); test: cell-based or functional assay
T1 sequence (looked up): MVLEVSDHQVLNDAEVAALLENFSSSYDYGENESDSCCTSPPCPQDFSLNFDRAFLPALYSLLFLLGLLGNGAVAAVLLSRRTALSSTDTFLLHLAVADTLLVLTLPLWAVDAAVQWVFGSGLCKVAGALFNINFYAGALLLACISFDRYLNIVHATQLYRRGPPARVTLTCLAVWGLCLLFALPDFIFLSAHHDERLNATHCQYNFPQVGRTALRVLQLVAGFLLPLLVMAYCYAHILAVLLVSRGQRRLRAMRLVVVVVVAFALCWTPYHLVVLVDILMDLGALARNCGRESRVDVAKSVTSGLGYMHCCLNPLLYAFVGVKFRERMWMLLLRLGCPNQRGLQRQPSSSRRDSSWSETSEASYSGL

[2] = biological target: T1, CXCR3 (human cell surface protein CD183); test: competition with Eu-IP-10 binding to Th1 cells
[3] = biological target: T1, CXCR3 (human cell surface protein CD183); test: competition with Eu-V44 (Eu-labeled mouse CXCR3mAb) binding to Th1 cells
Procedure: Th1 cells were incubated in a 96 well plate with Eu-CXCR3mAb in the absence or presence of various concentrations humanized CXCRmAbs. After incubation (1 hr at RT), cell bound Eu-CXCR3mAb was separated from free Europium by washing three times and the plate was read using Vctor2 fluorometer. IC$50$ values were calculated using Prizm software. Ab1 has a heavy chain sequence of humanized anti-CXCR3 V44D7 VH Lead #5 amino acid and a light chain sequence of humanized anti-CXCR3 V44D7 VK Lead #1 (see Informal Sequence Listing) in an IgG1 backbone. Ab2 has a heavy chain sequence of humanized anti-CXCR3 V44D7 VH Lead #5 and a light chain sequence of humanized anti-CXCR3 V44D7 VK Lead #7 (see Informal Sequence Listing) in an IgG1 backbone. Humanized Ab (IgG4) has a heavy chain sequence of humanized anti-CXCR3 V44D7 VH Lead #5 and a light chain sequence of the original mouse anti-CXCR3 V44D7 VK in an IgG4 backbone. Figure 22: FIG. 22 illustrates inhibition Eu-CXC10 by humanized CXCR3Abs. […] After incubation (1 hr at RT), cell bound Eu-CXCL10 was separated from free Europium by washing three times and the plate was read using Vctor2 fluorometer. IC$50$ values were calculated using Prizm software. […] After 2 hr incubation at 37° C., cells migrated to the bottom wells were determined by cell titer glo method (Promega).

[4] = biological target: T1, CXCR3 (human cell surface protein CD183); test: cell-based or functional assay; remark: listed apart in the source
[5] = biological target: T2, rat CXCR3 (on polarized rat Th1 cells) (rat, UniProt Q9JII9 1-367); test: FACS on polarized rat Th1 cells
T2 construct: whole, on cells; the target meant is rat CXCR3
T2 sequence (looked up): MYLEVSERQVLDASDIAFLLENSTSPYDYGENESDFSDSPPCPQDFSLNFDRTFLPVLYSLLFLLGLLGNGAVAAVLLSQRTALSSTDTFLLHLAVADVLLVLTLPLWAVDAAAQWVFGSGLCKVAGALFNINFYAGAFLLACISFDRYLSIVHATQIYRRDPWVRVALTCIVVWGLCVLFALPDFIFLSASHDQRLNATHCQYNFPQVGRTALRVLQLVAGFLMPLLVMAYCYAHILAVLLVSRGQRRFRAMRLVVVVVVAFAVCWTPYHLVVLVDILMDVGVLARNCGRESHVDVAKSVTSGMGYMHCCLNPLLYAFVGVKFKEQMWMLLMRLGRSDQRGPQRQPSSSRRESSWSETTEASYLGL
Procedure: FACS analysis was performed to determine reactivity of mouse CXCR3mAb to polarized rat Th1 cells. Only rabbit anti-mouse CXCR3 Ab bound to rat Th1 cells. […] As a control, mouse anti-CXCR3mAb binding to human Th1 cells is also shown (bottom panel).
The parental mouse CXCR3mAb was tested for binding to polarized rat Th1 cells by FACS. Only rabbit anti-mouse CXCR3 Ab (positive control) bound to rat Th1 cells.

[6] = biological target: T1, CXCR3 (human cell surface protein CD183); test: displacement of 125I-I-Tac binding to Th1 cells
[7] = biological target: T1, CXCR3 (human cell surface protein CD183); test: displacement of 125I-IP-10 binding to Th1 cells
Procedure: Figure 14: FIG. 14 illustrates expression of CXCR3 on Th1 cells. Th1 and Th2 cells were generated from cord blood and CXCR3 and CCR4 expression were determined by FACS. CXCR3 was present only Th1 cells. […] IC$50$ values were calculated using Prizm software. Lead candidates were highlighted in green. […] IC$50$ values were calculated using Prizm software. Lead candidates were highlighted in green.

[8] = biological target: T3, CXCR3 (human cell surface protein CD183) (human, UniProt P49682 1-368); test: 125I-CXCL11 binding inhibition on Th1 cells
T3 chain: T1 sequence (looked up)

Chemotaxis IC50 [1]: 0.28 nM
IC50 [2]: 0.35 nM
IC50 [3]: 1.82 nM
B1: Humanized Ab2 H5K7 (antibody, V domains shown)
VH: EVQLLESGGGLVQPGGSLRLSCAASGFTFSNYAMSWVRQAPGKGLEWVSTISSGGGYTYYPDSLKGRFTISRDNSKNTLYLQMNSLRAEDTAVYYCAKHGAPMTTVITYAPYYFYYWGQGTTVTVSS
VL: ENVLTQSPAFLSVTPGEKVTITCRASSSVKYMYWYQQKPDQAPKLWIYYTSNLAPGVPSRFSGSGSGNDYTFTISSLEAEDAATYYCQQFTTSPYTFGGGTKLEIK
notes: IgG1 backbone, human kappa

Inhibition of IP-10-induced Th1 chemotaxis, IC50 [4]: 0.035 mg/L
Chemotaxis IC50 [1]: 0.09 nM
binding result [5]: no binding
IC50 [2]: 0.14 nM
IC50 [6]: 0.1 nM
IC50 [7]: 0.13 nM
IC50 [3]: 0.29 nM
B2: Mouse anti-CXCR3 V44D7 (antibody, V domains shown)
VH: EVMLVESGGGLVKPGGSLKLSCAASGFTFSNYAMSWVRQTPEKRLEWVATISSGGGYTYYPDSLKGRFTISRDNAKNTLFLQMSSLRSEDTAVYYCVRHGAPMTTVITYAPYYFDYWGQGTTLTVSS
VL: ENVLTQSPAIMSASLGEKVTMNCRASSSVKYMYWYQQKSDASPKLWIYYTSNLAPGVPARFSGSGSGNSYSLTISSMEGEDAATYYCQQFTTSPYTFGGGTKLEIK
notes: also called V44D7A; Ab#5

IC50 [8]: 0.01 nM
B3: CXCL11 (I-TAC, interferon-inducible T cell a-chemoattractant) (ligand)
chain: FPMFKRGRCLCIGPGVKAVKVADIEKASIMYPSNNCDKIEVIITLKENKGQRCLNPKSKQARLIIKKVERKNF
modifications: 125I label, site not stated
